Where two headings read alike, the source gives them in different places. Each block holds one binder with its values, some of them ahead of it.
Experiments:
hu HIL6 AFH monomer [1] = biological target: T1, hu HIL6 AFH monomer (human); assay: SPR Biacore T100, binder captured by anti-human Fc
T1 chain: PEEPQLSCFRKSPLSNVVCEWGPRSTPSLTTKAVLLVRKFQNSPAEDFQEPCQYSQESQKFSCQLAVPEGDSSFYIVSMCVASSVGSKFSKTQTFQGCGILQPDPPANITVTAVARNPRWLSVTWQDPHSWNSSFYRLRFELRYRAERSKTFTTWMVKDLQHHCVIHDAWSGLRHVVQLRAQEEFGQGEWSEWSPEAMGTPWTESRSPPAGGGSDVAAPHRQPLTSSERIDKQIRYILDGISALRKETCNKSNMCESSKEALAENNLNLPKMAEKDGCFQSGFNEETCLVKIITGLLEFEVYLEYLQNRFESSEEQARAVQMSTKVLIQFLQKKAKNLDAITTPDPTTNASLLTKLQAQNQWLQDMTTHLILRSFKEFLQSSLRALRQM
Method: (§1) Binding affinities and kinetic rate constants of interaction of hyper-IL6 (HIL6; monomer or dimer), and its components IL6 and sIL6R, with different anti-HIL6 binding domains in scFv, SMIP, Xceptor and reverse Xceptor formats were determined using a Biacore® T100 instrument (GE Healthcare, Piscataway, N.J.).
(§2) Anti-HIL6 SMIPS, Xceptors, and reverse Xceptors were captured by a monoclonal mouse anti-human Fc, which was covalently conjugated to a carboxylmethyl dextran (CM4) surface via amines using N-ethyl-N′-(3-dimethylaminopropyl)-carbodiimide hydrochloride and N-hydroxysuccinimide. The unoccupied sites of the activated surface were blocked by ethanolamine. […] In every cycle, three different HIL6 binders were captured on flow cells 2, 3 and 4, while flow cell 1 was used as the reference cell. For each cycle, a single concentration of a single HIL6-related molecule was injected for 150 seconds at 35 microliters per minute, and then allowed to dissociate for 300 seconds. At the end of the cycle, the surface was regenerated gently using 3M MgCl₂, which dissociates protein bound to anti-hFc capture antibody. Multiple cycles were performed to study binding of monomeric or dimeric HIL6 at different concentrations, in the range of 0-100 nM, for each set of three HIL6 binders captured. […] The experiment was performed at 25° C. Signal associated with binding to the reference cell was used to subtract for bulk refractive changes and blank (buffer-only) injections were used to correct for drift and system noise. The kinetic parameters and affinities were determined using BIAevaluation software. Anti-HIL6 scFv molecules were analyzed in the reverse orientation using a dimeric human HIL6/mouse IgG Fc fusion protein captured by an immobilized rabbit polyclonal anti-mouse IgG Fc antibody on the surface and injecting different concentrations of scFv over the surface. For the HIL6 components IL6 (eBioscience, catalog no. 14-8069) and sIL6R, a single 100 nM injection was performed to obtain a qualitative assessment of binding.

[2] = biological target: T2, hu HIL6 Fc dimer (dimeric human HIL6/mouse IgG Fc fusion protein) (human); assay: SPR Biacore T100, binder captured by anti-human Fc
T2 construct: also called human hyper-IL6 (IL6R-IL6-mIgG); dimeric HIL6
T2 chain: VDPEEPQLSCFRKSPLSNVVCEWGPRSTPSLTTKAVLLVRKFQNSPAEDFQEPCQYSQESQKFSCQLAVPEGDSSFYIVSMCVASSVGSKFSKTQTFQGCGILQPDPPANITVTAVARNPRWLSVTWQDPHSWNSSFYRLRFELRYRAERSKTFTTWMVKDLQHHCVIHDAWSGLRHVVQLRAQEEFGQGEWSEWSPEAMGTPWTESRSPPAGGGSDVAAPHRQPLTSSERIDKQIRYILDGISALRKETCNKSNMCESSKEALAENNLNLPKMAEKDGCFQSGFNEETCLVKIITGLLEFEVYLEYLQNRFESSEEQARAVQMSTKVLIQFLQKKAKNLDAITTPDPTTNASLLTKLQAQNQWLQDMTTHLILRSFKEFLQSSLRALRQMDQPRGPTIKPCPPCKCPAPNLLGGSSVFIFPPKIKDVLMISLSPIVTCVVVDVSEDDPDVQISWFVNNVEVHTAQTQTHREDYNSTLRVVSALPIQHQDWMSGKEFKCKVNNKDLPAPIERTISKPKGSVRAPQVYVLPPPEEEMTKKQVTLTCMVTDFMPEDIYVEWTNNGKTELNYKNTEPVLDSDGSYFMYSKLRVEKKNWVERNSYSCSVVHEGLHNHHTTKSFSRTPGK
Method: as §1, §2

recombinant human IL6 [3] = biological target: T3, recombinant human IL6 (human, UniProt P05231 30-212); assay: SPR Biacore T100, binder captured by anti-human Fc
T3 construct: also called rhIL6; IL6 monomer
Method: as §1, §2

recombinant human TNF-α = biological target: T4, recombinant human TNF-α (human, UniProt P01375 77-233); assay: ELISA, Xceptor captured by anti-human Fc
T4 construct: also called rhTNFα
T4 sequence (P01375 77-233 limits assumed): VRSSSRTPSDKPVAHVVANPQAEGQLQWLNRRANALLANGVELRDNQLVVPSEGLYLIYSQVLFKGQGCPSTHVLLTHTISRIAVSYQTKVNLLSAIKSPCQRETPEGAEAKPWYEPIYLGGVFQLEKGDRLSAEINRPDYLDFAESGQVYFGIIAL

[4] = biological target: T5, recombinant human soluble IL6 receptor (human, UniProt P08887 20-358); assay: ELISA, Xceptor captured by anti-human Fc
T5 construct: also called sIL6R; sIL-6R
T5 sequence (looked up): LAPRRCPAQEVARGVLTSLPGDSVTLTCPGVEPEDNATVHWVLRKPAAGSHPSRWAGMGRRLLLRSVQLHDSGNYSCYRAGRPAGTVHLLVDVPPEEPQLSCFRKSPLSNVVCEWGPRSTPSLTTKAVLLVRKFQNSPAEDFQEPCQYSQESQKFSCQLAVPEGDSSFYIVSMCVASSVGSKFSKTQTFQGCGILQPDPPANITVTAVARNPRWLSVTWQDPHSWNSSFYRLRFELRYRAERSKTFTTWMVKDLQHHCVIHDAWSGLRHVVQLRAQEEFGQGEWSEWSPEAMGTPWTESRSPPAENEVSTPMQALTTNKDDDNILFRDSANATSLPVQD

hu HIL6 AFH monomer [5] = biological target: T1, hu HIL6 AFH monomer; assay: SPR Biacore T100, binder captured by anti-human Fc
[6] = biological target: T2, hu HIL6 Fc dimer (dimeric human …); assay: SPR Biacore T100, binder captured by anti-human Fc
recombinant human IL6 [7] = biological target: T3, recombinant human IL6; assay: SPR Biacore T100, binder captured by anti-human Fc; remark: listed apart in the source
sIL6R Fc dimer [8] = biological target: T6, sIL6R Fc dimer (UniProt P08887 20-358, limits assumed); assay: SPR Biacore T100, binder captured by anti-human Fc
T6 construct: not shown: Fc
T6 sequence (looked up): T5 sequence (looked up)

sIL6R Fc dimer [9] = biological target: T6, sIL6R Fc dimer; assay: SPR Biacore T100, binder captured by anti-human Fc; remark: listed apart in the source
Method: as §1, §2

B1: TRU(S6)-1025 (Fc fusion)
chain: EVQLLESGGGLVQPGGSLRLSCAASGFTFSHYGMHWVRQAPGKGLEWVSSIYPGMTQYADSVKGRFTISRDNSKNTLYLQMNSLRAEDTAVYYCARDRGSGIDAFDIWGQGTMVTVSSGGGGSGGGGSGGGGSQSELTQPPSVSVSPGQTATVSCSGEKLGDRYAWWYQQKAGQSPVLVIYQDTKRPSGVPDRFSGSNSGTSASLVISGPQSEDEADYYCAAWDDSLKGVVFGGGSKLTVLTGEPKSSDKTHTCPPCPAPEAAGAPSVFLFPPKPKDTLMISRTPEVTCVVVDVSHEDPEVKFNWYVDGVEVHNAKTKPREEQYNSTYRVVSVLTVLHQDWLNGKAYACAVSNKALPAPIEKTISKAKGQPREPQVYTLPPSRDELTKNQVSLTCLVKGFYPSDIAVEWESNGQPENNYKTTPPVLDSDGSFFLYSKLTVDKSRWQQGNVFSCSVMHEALHNHYTQKSLSLSPGK
notes: SMIP (scFv - linker - CH2CH3)
Kd (hu HIL6 AFH monomer [1]): 2.6 nM
Kd [2]: 4.4 nM
binding result (recombinant human IL6 [3]): no binding (tested: 100 nM)

B4: TRU(S6)-1029 (Fc fusion)
chain: EVQLLESGGGLVQPGGSLRLSCAASGFTFSSYWMHWVRQAPGKGLEWVSSIYPSGGSTEYADSVKGRFTISRDNSKNTLYLQMNSLRAEDTAVYYCAKGIWFDPWGQGTLVTVSSGGGGSGGGGSGGGGSQDIQMTQSPATLSASVGDRVTITCRSSQRISGYLNWYQQQPGKAPKLLIYAASTLQSGVPSRISGSGSGTDFSLIISSLQPEDVATYYCQQSYSPPFTFGGGTKVEIKTGEPKSSDKTHTCPPCPAPEAAGAPSVFLFPPKPKDTLMISRTPEVTCVVVDVSHEDPEVKFNWYVDGVEVHNAKTKPREEQYNSTYRVVSVLTVLHQDWLNGKAYACAVSNKALPAPIEKTISKAKGQPREPQVYTLPPSRDELTKNQVSLTCLVKGFYPSDIAVEWESNGQPENNYKTTPPVLDSDGSFFLYSKLTVDKSRWQQGNVFSCSVMHEALHNHYTQKSLSLSPGK
notes: SMIP (scFv - linker - CH2CH3)
Kd (hu HIL6 AFH monomer [1]): 180 nM
binding result (sIL6R Fc dimer [9]): no binding (tested: 100 nM)

More lines, now with the values ahead:

binding result (recombinant human TNF-α): binds
binding result [4]: no binding (tested: 75 pM sIL-6R)
B2: TRU(XT6)-1058 (Fc fusion)
chain: LPAQVAFTPYAPEPGSTCRLREYYDQTAQMCCSKCSPGQHAKVFCTKTSDTVCDSCEDSTYTQLWNWVPECLSCGSRCSSDQVETQACTREQNRICTCRPGWYCALSKQEGCRLCAPLRKCRPGFGVARPGTETSDVVCKPCAPGTFSNTTSSTDICRPHQICNVVAIPGNASMDAVCTSTSPTRSMAPGAVHLPQPVSTRSQHTQPTPEPSTAPSTSFLLPMGPSPPAEGSTGDTGEPKSSDKTHTCPPCPAPEAAGAPSVFLFPPKPKDTLMISRTPEVTCVVVDVSHEDPEVKFNWYVDGVEVHNAKTKPREEQYNSTYRVVSVLTVLHQDWLNGKAYACAVSNKALPAPIEKTISKAKGQPREPQVYTLPPSRDELTKNQVSLTCLVKGFYPSDIAVEWESNGQPENNYKTTPPVLDSDGSFFLYSKLTVDKSRWQQGNVFSCSVMHEALHNHYTQKSLSLSPGQRHNNSSLNTRTQKARHSPNSEVQLLESGGGLVQPGGSLRLSCAASGFTFSMYTMHWVRQAPGKGLEWVSWISPSGGWTKYADSVKGRFTISRDNSKNTLYLQMNSLRAEDTAVYYCAVSPWGGPFDYWGQGTLVTVSSGGGGSGGGGSGGGGSQDIQMTQSPSTLSASVGDRVTITCRASQSISSWLAWYQQKPGKAPKLLIYKASTLESGVPSRFSAGGSGTEFTLTISSLQPDDFGTYYCQQYNSYSLTFGGGTKVEII
notes: Xceptor, TNFRSF1B ectodomain N-terminal, anti-IL6xR domain C-terminal

binding result (recombinant human TNF-α): binds
binding result [4]: no binding (tested: 75 pM sIL-6R)
Kd (hu HIL6 AFH monomer [5]): 17 nM
Kd [6]: 5.7 nM
Kd (recombinant human IL6 [7]): 1 nM
binding result (sIL6R Fc dimer [8]): no binding (tested: 100 nM)
B3: TRU(XT6)-1019 (Fc fusion)
chain: LPAQVAFTPYAPEPGSTCRLREYYDQTAQMCCSKCSPGQHAKVFCTKTSDTVCDSCEDSTYTQLWNWVPECLSCGSRCSSDQVETQACTREQNRICTCRPGWYCALSKQEGCRLCAPLRKCRPGFGVARPGTETSDVVCKPCAPGTFSNTTSSTDICRPHQICNVVAIPGNASMDAVCTSTSPTRSMAPGAVHLPQPVSTRSQHTQPTPEPSTAPSTSFLLPMGPSPPAEGSTGDTGEPKSSDKTHTCPPCPAPEAAGAPSVFLFPPKPKDTLMISRTPEVTCVVVDVSHEDPEVKFNWYVDGVEVHNAKTKPREEQYNSTYRVVSVLTVLHQDWLNGKAYACAVSNKALPAPIEKTISKAKGQPREPQVYTLPPSRDELTKNQVSLTCLVKGFYPSDIAVEWESNGQPENNYKTTPPVLDSDGSFFLYSKLTVDKSRWQQGNVFSCSVMHEALHNHYTQKSLSLSPGQRHNNSSLNTRTQKARHSPNSEVQLLESGGGLVQPGGSLRLSCAASGFTFSWYLMHWVRQAPGKGLEWVSGIWPSGGHTLYADSVKGRFTISRDNSKNTLYLQMNSLRAEDTAVYYCAREPLLWFGELSYNWFDPWGQGTLVTVSSGGGGSGGGGSGGGGSQDIQMTQSPSSVSASVGDRVTITCRASQGISSWLAWYQQKPGKAPKLLIYAASSLQSGVPSRFSGSGSGTDFTLTISSLQPEDFATYYCQQANSFPLTFGGGTKVEIK
notes: as for B2

binding result (recombinant human TNF-α): binds
binding result [4]: no binding (tested: 75 pM sIL-6R)
Kd (hu HIL6 AFH monomer [5]): 1.9 nM
Kd [6]: 300 nM
Kd (recombinant human IL6 [7]): 0.57 nM
binding result (sIL6R Fc dimer [8]): no binding (tested: 100 nM)
B5: TRU(X6T)-1019 (Fc fusion)
chain: EVQLLESGGGLVQPGGSLRLSCAASGFTFSWYLMHWVRQAPGKGLEWVSGIWPSGGHTLYADSVKGRFTISRDNSKNTLYLQMNSLRAEDTAVYYCAREPLLWFGELSYNWFDPWGQGTLVTVSSGGGGSGGGGSGGGGSQDIQMTQSPSSVSASVGDRVTITCRASQGISSWLAWYQQKPGKAPKLLIYAASSLQSGVPSRFSGSGSGTDFTLTISSLQPEDFATYYCQQANSFPLTFGGGTKVEIKTGEPKSSDKTHTCPPCPAPEAAGAPSVFLFPPKPKDTLMISRTPEVTCVVVDVSHEDPEVKFNWYVDGVEVHNAKTKPREEQYNSTYRVVSVLTVLHQDWLNGKAYACAVSNKALPAPIEKTISKAKGQPREPQVYTLPPSRDELTKNQVSLTCLVKGFYPSDIAVEWESNGQPENNYKTTPPVLDSDGSFFLYSKLTVDKSRWQQGNVFSCSVMHEALHNHYTQKSLSLSPGQRHNNSSLNTRTQKARHSPNSLPAQVAFTPYAPEPGSTCRLREYYDQTAQMCCSKCSPGQHAKVFCTKTSDTVCDSCEDSTYTQLWNWVPECLSCGSRCSSDQVETQACTREQNRICTCRPGWYCALSKQEGCRLCAPLRKCRPGFGVARPGTETSDVVCKPCAPGTFSNTTSSTDICRPHQICNVVAIPGNASMDAVCTSTSPTRSMAPGAVHLPQPVSTRSQHTQPTPEPSTAPSTSFLLPMGPSPPAEGSTGD

Reference: patent publication US20110142851A1 (EMERGENT PRODUCT DEVELOPMENT SEATTLE, published 2011)
